Entries after “also recorded” stand apart in the source; their conditions may differ. Where two headings read alike, the source gives them in different places.

The subject of data set [1] is 5TGM1 cells. As to the kind of experiment: In vitro cell uptake assay, 5TGM1 cells. Format: cell-based, mouse. As for the experimental part: (§1) Cell uptake assays were performed in murine 5TGM1 and human RPMI-8226 myeloma cells using ^64Cu-CB-TE1A1P-LLP2A to determine the sum of cell internalized and surface-bound fractions. Cells were grown in Iscoves MDM until 60−75% confluent, harvested by mechanical dissociation, and re-suspended in the binding medium (phosphate buffered saline [PBS], 0.1% bovine serum albumin [BSA] and 1 mM Mn^2+) in 1.5 mL microfuge tubes. A solution of ^64Cu-CB-TE1A1P-LLP2A (0.1 nM) was added to the cell suspension. The samples were incubated for 60 min in a cell incubator (37°C, 5% CO2). To determine the in vitro VLA-4 binding specificity of ^64Cu-CB-TE1A1P-LLP2A, samples were co-incubated with ∼200-fold excess of the unlabeled ligand, LLP2A. After incubation, the samples were centrifuged at 1,500 rpm for 5 min, and the radioactive medium was removed. Cell pellets were rinsed with ice cold binding buffer (500 µL) and centrifuged at 1,500 rpm for 3 min (2 X). The radioactivity in cell pellets was measured in a well counter (Packard II gamma counter).

The subject of data set [2] is 5TGM1 tumors. The experiment in a line: Small animal PET/CT imaging in KaLwRij mice bearing 5TGM1 tumors. Format: in vivo, mouse. The conditions noted are these: 2 h post injection. The protocol:
(§2) KaLwRij mice (from Dr. Claire M. Edwards, Vanderbilt University Medical Center Cancer Biology, Nashville, TN) were housed in ventilated cage racks and allowed food and water. 5TGM1 cells in log phase growth were prepared for injection by precipitation in a centrifuge followed by a wash step with sterile endotoxin-free PBS. Finally, the cells were re-suspended in endotoxin-free PBS at a concentration of 1×10^6 cells/mL and injected with or without matrigel, respectively, in the nape of the neck subcutaneously (s.c.) or intraperitoneally (i.p.) in a 100 µL volume in 3–5 week old mice. The tumors were allowed to grow for an average of 10 d.
(§3) Prior to small animal PET/CT imaging, mice were injected intravenously (tail vein) with ^64Cu-CB-TE1A1P-LLP2A (0.9 MBq (SA: 37 MBq/µg)). At 2 h post injection, mice were anaesthetized with 1–2% isoflurane and imaged with small animal PET (Focus 220 or Inveon (Siemens Medical Solutions, Knoxville,TN)), while the CT images were acquired with the Inveon. Static images were collected for 30 min and co-registered using the Inveon Research Workstation (IRW) software (Siemens Medical Solutions, Knoxville,TN). PET images were re-constructed with the maximum a posteriori (MAP) algorithm. The analysis of the small animal PET images was done using the IRW software. Regions of interest (ROI) were selected from PET images using CT anatomical guidelines and the activity associated with them was measured with IRW software. Maximum standard uptake values (SUVs) for both experiments were calculated using SUV = ([nCi/mL]x[animal weight (g)]/[injected dose (nCi)]). A set of mice was also imaged at 24 h post injection.
(§4) To test the ability of ^64Cu-CB-TE1A1P-LLP2A to image MM, small animal PET/CT imaging was conducted in KaLwRij mice bearing 5TGM1 murine myeloma tumors. The following i.p. and s.c. 5TGM1 models were used for the proof-of-principle imaging studies: 1) a non-matrigel assisted s.c. (plasmacytoma) tumor in the flank of the mouse (Figure 4B); 2) a matrigel assisted s.c. tumor in the flank of the mouse (Figure 4C); and 3) tumor cells injected in the peritoneal (i.p.) cavity (Figure 4D). Figure 4 contains […] (B-D) representative maximum intensity projection (MIP) small animal PET images using ^64Cu-CB-TE1A1P-LLP2A (0.9 MBq, 0.05 µg, 27 pmol, SA: 37 MBq/µg) at 2 h post injection in the various models compared to a non-tumor-bearing control mouse (Figure 4A). […] The SUV of the tumor shown in Figure 4D was not determined due to the large tumor size and overlap with the spleen and bladder. The heterogeneous distribution of the imaging agent in Figure 4D likely corresponds with the heterogeneity of the tumor mass. The uptake of ^64Cu-CB-TE1A1P-LLP2A in i.p. tumors was determined to be 14.9±2.6%ID/g by post PET biodistribution (2 h post injection). […] We are currently investigating the imaging of myeloma induced spleen pathology (splenomegaly) in orthotopic (i.v.) 5TGM1 mouse models of MM.

Test in data set [3]: as above
Format: in vivo, mouse. The settings on record: KaLwRij, mouse, iv, total radioactivity. The protocol:
as §2, §3, §4

For data set [4], the system named is RPMI-8226 cells. As to the kind of experiment: In vitro cell uptake assay, RPMI-8226 cells. The conditions noted are these: 0.1 nM tracer, 37°C, 60 min, 1 mM Mn2+, ~200-fold excess LLP2A, P<0.0001. Format: cell-based, human. As for the experimental part:
as §1
Binding of ^64Cu-CB-TE1A1P-LLP2A was evaluated in human MM cell line RPMI-8226 in vitro.

For data set [5], the target named is T1, VLA-4 (α4β1 integrin) on 5TGM1 murine myeloma cells (Mus musculus, UniProt P09055+Q00651).
T1 construct: was incubated with ∼250,000 5TGM1 (∼ 0.41 mg protein) whole cells; endogenous in cells; host or cells: 5TGM1 murine myeloma cells (whole cells)
As to the kind of experiment: In vitro saturation binding assay on 5TGM1 whole cells. The conditions noted are these: tracer 0.5–15.5 nM, 2 h at 4°C, 1 mM Mn2+, N = 3. As for the experimental part: For saturation binding experiments, ^64Cu-CB-TE1A1P-LLP2A (0.5–15.5 nM) was incubated with ∼250,000 5TGM1 (∼ 0.41 mg protein) whole cells in 1.5 mL microfuge tubes for 2 h at 4°C in a total volume of 500 µL of binding medium (phosphate buffered saline [PBS], 0.1% bovine serum albumin [BSA] and 1 mM Mn^2+). The reaction tubes were put on a slow moving rotor during the 4°C incubation. After the incubation, samples were centrifuged at 1,500 rpm for 5 min, reaction buffer was removed by vacuum aspiration and the cells were washed two times with ice cold PBS. Non-specific binding was determined by conducting the assay in the presence of an excess (∼200 fold) unlabeled LLP2A. The radioactivity in the cell pellets was measured in a well counter (Packard II gamma counter). The specific binding was obtained by the subtraction of non-specific binding from total binding. The dissociation constant (Kd) and receptor density (Bmax) were estimated from the non-linear fitting of the specific binding versus the concentration of ^64Cu-CB-TE1A1P-LLP2A using Prism software (GraphPad, San Diego, CA).
The in vitro binding affinity of ^64Cu-CB-TE1A1P-LLP2A was investigated by determining the equilibrium dissociation constant (Kd) and the maximum specific binding (Bmax) of the radiolabeled conjugate to 5TGM1 cells in saturation binding assays. […]

The subject of data set [6] is 5TGM1 tumors. The experiment in a line: Tissue biodistribution in 5TGM1 tumor-bearing KaLwRij mice. Format: in vivo, mouse. The settings on record: 2 h, co-administered ~200-fold excess cold LLP2A, p<0.05, N = 4. As for the experimental part:
as §2
(§5) 5TGM1 tumor bearing mice were sacrificed at 2 or 24 h after the injection of the radiopharmaceutical, ^64Cu-CB-TE1A1P-LLP2A. Blood, marrow, fat, heart, stomach, intestines, lungs, liver, spleen, kidneys, muscle, bone, pancreas, and tumor were harvested, weighed, and counted in the γ-counter. For the in vivo blocking studies, an additional group of mice was injected with the radiopharmaceutical premixed with ∼200-fold excess of LLP2A to serve as a blocking agent and sacrificed at the respective time point. The percent injected dose per gram of tissue (%ID/g) was determined by decay correction of the radiopharmaceutical for each sample normalized to a standard of known weight, which was representative of the injected dose.
(§6) Figure 3 Tissue biodistribution of ^64Cu-CB-TE1A1P-LLP2A in 5TGM1 s.c. tumor mice. Biodistribution of ^64Cu-CB-TE1A1P-LLP2A in 5TGM1 s.c. tumor mice (black bars). The open bars represent biodistribution in the presence of non-radioactive blocking agent (∼ 200 fold excess LLP2A). Mice were injected with ^64Cu-CB-TE1A1P-LLP2A (0.01 µg, 0.2 MBq, SA: 37 MBq/µg) and sacrificed at 2 h post injection. N = 4 mice/group.

Test in data set [7]: as above
Format: in vivo, mouse. The settings on record: mouse, iv, 0.01 ug, total radioactivity, 2 h post injection, s.c. 5TGM1 tumor KaLwRij mice, mean±SD, N = 4. The protocol:
as §2, §5, §6

T1 sequence (Q00651 41-1039): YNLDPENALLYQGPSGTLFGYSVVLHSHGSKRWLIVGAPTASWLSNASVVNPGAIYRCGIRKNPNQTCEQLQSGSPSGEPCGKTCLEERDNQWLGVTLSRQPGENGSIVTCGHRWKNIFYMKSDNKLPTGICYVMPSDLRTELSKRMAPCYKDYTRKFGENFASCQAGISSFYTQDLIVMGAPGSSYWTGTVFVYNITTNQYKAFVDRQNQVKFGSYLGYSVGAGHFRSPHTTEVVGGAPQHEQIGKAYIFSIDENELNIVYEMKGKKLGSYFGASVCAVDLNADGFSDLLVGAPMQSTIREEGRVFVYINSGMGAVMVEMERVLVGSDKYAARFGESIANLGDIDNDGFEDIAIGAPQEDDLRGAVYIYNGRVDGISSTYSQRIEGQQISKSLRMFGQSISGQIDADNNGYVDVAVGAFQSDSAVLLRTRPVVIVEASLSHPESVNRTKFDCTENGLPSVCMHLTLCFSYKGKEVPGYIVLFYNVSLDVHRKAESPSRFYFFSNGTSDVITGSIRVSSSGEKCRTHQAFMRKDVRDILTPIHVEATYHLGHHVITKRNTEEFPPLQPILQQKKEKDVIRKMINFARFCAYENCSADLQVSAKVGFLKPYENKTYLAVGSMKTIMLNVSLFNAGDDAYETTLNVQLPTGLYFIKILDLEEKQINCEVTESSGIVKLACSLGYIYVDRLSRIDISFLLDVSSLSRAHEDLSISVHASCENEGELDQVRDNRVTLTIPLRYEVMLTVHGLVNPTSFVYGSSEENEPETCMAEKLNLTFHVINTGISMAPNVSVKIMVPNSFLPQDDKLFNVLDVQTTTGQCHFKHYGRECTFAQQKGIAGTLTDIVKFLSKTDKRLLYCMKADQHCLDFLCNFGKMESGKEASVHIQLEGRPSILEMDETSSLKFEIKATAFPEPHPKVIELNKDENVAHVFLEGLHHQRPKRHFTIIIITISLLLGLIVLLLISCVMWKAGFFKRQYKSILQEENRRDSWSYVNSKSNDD
T1 sequence (P09055 21-798): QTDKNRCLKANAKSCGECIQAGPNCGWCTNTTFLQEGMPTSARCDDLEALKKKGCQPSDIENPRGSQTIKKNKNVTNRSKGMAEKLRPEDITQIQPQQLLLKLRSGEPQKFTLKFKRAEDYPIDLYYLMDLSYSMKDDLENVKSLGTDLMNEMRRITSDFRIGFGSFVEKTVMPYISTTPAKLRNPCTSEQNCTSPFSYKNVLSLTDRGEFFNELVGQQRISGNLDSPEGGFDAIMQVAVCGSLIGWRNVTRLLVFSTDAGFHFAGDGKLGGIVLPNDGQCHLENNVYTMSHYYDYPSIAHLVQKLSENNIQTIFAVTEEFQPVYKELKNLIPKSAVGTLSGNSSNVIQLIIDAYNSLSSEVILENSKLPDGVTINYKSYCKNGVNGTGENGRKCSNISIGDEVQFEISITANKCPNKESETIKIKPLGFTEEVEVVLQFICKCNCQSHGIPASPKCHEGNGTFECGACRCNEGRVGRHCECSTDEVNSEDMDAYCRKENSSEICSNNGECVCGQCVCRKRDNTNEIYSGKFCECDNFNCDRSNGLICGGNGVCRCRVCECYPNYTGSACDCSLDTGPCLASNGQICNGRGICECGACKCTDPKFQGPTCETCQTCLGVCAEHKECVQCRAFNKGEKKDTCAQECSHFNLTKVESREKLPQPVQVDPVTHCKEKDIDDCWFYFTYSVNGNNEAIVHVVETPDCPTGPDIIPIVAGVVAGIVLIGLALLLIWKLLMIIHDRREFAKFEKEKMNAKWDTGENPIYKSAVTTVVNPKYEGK

For the molecule `Cc1ccccc1NC(=O)Nc1ccc(CC(=O)N[C@@H](CCCCNC(=O)/C=C/c2cccnc2)C(=O)N[C@@H](CCCC(=O)O)C(=O)NC2(C(=O)NCCOCCOCCNC(=O)CCC(=O)NCCOCCOCCNC(=O)CCC(=O)N[C@@H](CCCCNC(=O)CN3CCCN4CCN(CCCN(CP(=O)(O)O)CC4)CC3)C(N)=O)CCCCC2)cc1` [64Cu-CB-TE1A1P-LLP2A, metal not drawn], in data set [1] (0.1 nM tracer, 60 min, 37°C, PBS/0.1% BSA/1 mM Mn2+, with and without ~200-fold excess LLP2A, P<0.0001), the “Cell uptake (internalized + surface-bound), block vs. non-block” value was “receptor specific uptake; also recorded: significantly different; also recorded: significantly reduced”. In data set [1] (without Mn2+, data not shown), the “Cell uptake in the absence of receptor activating cation Mn2+” value is “much lower binding”. The “Spleen SUV, non-tumor bearing mouse” value in data set [2] (non-tumor KaLwRij control mouse) is 2.2. For the same molecule, in data set [2] (~200-fold excess LLP2A, P<0.05), the “Reduction in tumor SUV in the presence of blocking agent” value stood at 3 fold. Besides, in data set [2] (representative mouse, Figure 4B), the “Tumor SUV, early stage non-palpable s.c. 5TGM1 tumor without matrigel” value stood at 2.24. Moreover, the “Tumor SUV, matrigel assisted s.c. 5TGM1 tumor” value in data set [2] (representative mouse, Figure 4C) is reported as 6.2. In addition, the SUV at 2 h in data set [3] (spleen, 0.05 ug, 2 h post injection, 5TGM1 tumor bearing mice, read-out: Spleen SUV, tumor bearing mice) is 3.3 SUV; in data set [3] (tumor, 0.05 ug, 2 h post injection, 0.9 MBq, 0.05 µg, 27 pmol, 5TGM1 tumors, mean±SD, N = 4, read-out: Tumor SUV (averaged maximum SUV from MIP PET images), no block), 6.2 ± 1.1 SUV; in data set [3] (tumor, 2 h post injection, ~200-fold excess LLP2A, mean±SD, N = 4, P<0.05, read-out: Tumor SUV in the presence of blocking agent), 2.3 ± 0.4 SUV. The tissue to tissue ratio at 2 h in data set [3] (tumor and muscle, 0.9 MBq, 2 h post injection, calculated from MIP image SUVs) was 28 ± 6. For the same molecule, the tissue to tissue ratio at 24 h in data set [3] (tumor and muscle, 0.9 MBq, 24 h post injection, calculated from MIP image SUVs) was 161 ± 41. Besides, the “Cell uptake in RPMI-8226 cells, with vs. without excess LLP2A” value in data set [4] is recorded as “significantly reduced; also recorded: significantly blocked”. The “Bmax (maximum specific binding, receptor density)” value in data set [5] is reported as 136 pmol/mg. Moreover, in data set [6], the “Uptake in tumor, spleen and bone in the presence of blocking agent” value was “significantly reduced”. The tissue uptake at 2 h was determined as 12 ± 4.5 %ID/g in data set [7] (i.v., 0.01 µg, 0.2 MBq, read-out: Tumor uptake (s.c. 5TGM1)) and 8.8 ± 1 %ID/g in data set [7] (spleen, read-out: Spleen uptake).

The values are drawn from paper PMC3568146, “Very Late Antigen-4 (α4β1 Integrin) Targeted PET Imaging of Multiple Myeloma” (PLoS ONE, 2013).
